In this experiment the target is SARS-CoV-2 core replication-transcription complex (nsp12 polymerase with nsp7 and nsp8), elongating on RNA (SARS-CoV-2) (UniProt P0DTD1). The experiment is described as follows: single-molecule magnetic tweezers (RNA synthesis traces).

As for “SARS-CoV-2 nsp13 helicase (wild type) (from UniProt P0DTD1 5325-5925) (enzyme)”, the KA of the first helicase (nsp13.1) binding to the core RTC stood at 0.22 nM⁻¹ and the KA of the second helicase (nsp13.2) binding to RTC-nsp13.1 amounted to 0.47 nM⁻¹.

These data come from article PMC13190607.
